Measurements as given in patent US20260015399A1 (Boehringer Ingelheim, published 2026).
*1 amine or outer side, *2 acyl side, *3 side chain or, on linkers, in order; H or OH if unused. Side-chain parts run from the residue outwards. The star is where a group is joined. C18 diacid = O=C(O)CCCCCCCCCCCCCCCCC(=O)*; γGlu = O=C(O)[C@H](CCC(=O)[*:2])N[*:1]; Isovaleryl = CC(C)CC(=O)*; Ahx = NCCCCCC(=O)O

T1: human NPY2 receptor (human, UniProt P49146 1-381)
T1 construct: whole, on cells; also called hNPY2-R; hNPY2R
T1 sequence (looked up): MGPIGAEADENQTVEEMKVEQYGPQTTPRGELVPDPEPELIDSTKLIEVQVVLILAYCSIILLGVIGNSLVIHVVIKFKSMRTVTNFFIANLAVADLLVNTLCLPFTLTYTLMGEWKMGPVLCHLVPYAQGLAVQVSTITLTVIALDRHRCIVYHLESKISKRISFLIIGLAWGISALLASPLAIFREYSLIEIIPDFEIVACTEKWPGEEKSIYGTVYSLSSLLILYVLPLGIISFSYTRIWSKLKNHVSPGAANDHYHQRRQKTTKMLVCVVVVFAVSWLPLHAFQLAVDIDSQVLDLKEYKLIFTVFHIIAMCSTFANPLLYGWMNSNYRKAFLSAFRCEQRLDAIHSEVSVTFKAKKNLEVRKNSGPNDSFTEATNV

B1: Compound 133 (peptide)
peptide: Isovaleryl-APAK([Ahx-γGlu-C18 diacid])PEEDAEPEELQRYYVSLRHYYNWLTRQRY-NH2
SMILES: CC(C)CC(=O)N[C@@H](C)C(=O)N1CCC[C@H]1C(=O)N[C@@H](C)C(=O)N[C@@H](CCCCNC(=O)CCCCCNC(=O)CC[C@H](NC(=O)CCCCCCCCCCCCCCCCC(=O)O)C(=O)O)C(=O)N1CCC[C@H]1C(=O)N[C@@H](CCC(=O)O)C(=O)N[C@@H](CCC(=O)O)C(=O)N[C@@H](CC(=O)O)C(=O)N[C@@H](C)C(=O)N[C@@H](CCC(=O)O)C(=O)N1CCC[C@H]1C(=O)N[C@@H](CCC(=O)O)C(=O)N[C@@H](CCC(=O)O)C(=O)N[C@@H](CC(C)C)C(=O)N[C@@H](CCC(N)=O)C(=O)N[C@@H](CCCNC(=N)N)C(=O)N[C@@H](Cc1ccc(O)cc1)C(=O)N[C@@H](Cc1ccc(O)cc1)C(=O)N[C@H](C(=O)N[C@@H](CO)C(=O)N[C@@H](CC(C)C)C(=O)N[C@@H](CCCNC(=N)N)C(=O)N[C@@H](Cc1c[nH]cn1)C(=O)N[C@@H](Cc1ccc(O)cc1)C(=O)N[C@@H](Cc1ccc(O)cc1)C(=O)N[C@@H](CC(N)=O)C(=O)N[C@@H](Cc1c[nH]c2ccccc12)C(=O)N[C@@H](CC(C)C)C(=O)N[C@H](C(=O)N[C@@H](CCCNC(=N)N)C(=O)N[C@@H](CCC(N)=O)C(=O)N[C@@H](CCCNC(=N)N)C(=O)N[C@@H](Cc1ccc(O)cc1)C(N)=O)[C@@H](C)O)C(C)C
B2: Compound 137 (peptide)
peptide: Isovaleryl-APEK([Ahx-γGlu-C18 diacid])PEEDATPEELQRYYVSLRHYYNWLLRQRY-NH2
SMILES: CC(C)CC(=O)N[C@@H](C)C(=O)N1CCC[C@H]1C(=O)N[C@@H](CCC(=O)O)C(=O)N[C@@H](CCCCNC(=O)CCCCCNC(=O)CC[C@H](NC(=O)CCCCCCCCCCCCCCCCC(=O)O)C(=O)O)C(=O)N1CCC[C@H]1C(=O)N[C@@H](CCC(=O)O)C(=O)N[C@@H](CCC(=O)O)C(=O)N[C@@H](CC(=O)O)C(=O)N[C@@H](C)C(=O)N[C@H](C(=O)N1CCC[C@H]1C(=O)N[C@@H](CCC(=O)O)C(=O)N[C@@H](CCC(=O)O)C(=O)N[C@@H](CC(C)C)C(=O)N[C@@H](CCC(N)=O)C(=O)N[C@@H](CCCNC(=N)N)C(=O)N[C@@H](Cc1ccc(O)cc1)C(=O)N[C@@H](Cc1ccc(O)cc1)C(=O)N[C@H](C(=O)N[C@@H](CO)C(=O)N[C@@H](CC(C)C)C(=O)N[C@@H](CCCNC(=N)N)C(=O)N[C@@H](Cc1c[nH]cn1)C(=O)N[C@@H](Cc1ccc(O)cc1)C(=O)N[C@@H](Cc1ccc(O)cc1)C(=O)N[C@@H](CC(N)=O)C(=O)N[C@@H](Cc1c[nH]c2ccccc12)C(=O)N[C@@H](CC(C)C)C(=O)N[C@@H](CC(C)C)C(=O)N[C@@H](CCCNC(=N)N)C(=O)N[C@@H](CCC(N)=O)C(=O)N[C@@H](CCCNC(=N)N)C(=O)N[C@@H](Cc1ccc(O)cc1)C(N)=O)C(C)C)[C@@H](C)O
B3: Compound 135 (peptide)
peptide: Isovaleryl-APEK([Ahx-γGlu-C18 diacid])PEAAAEPEEIQRYYVALRHYYNWLTRQRY-NH2
SMILES: CC[C@H](C)[C@H](NC(=O)[C@H](CCC(=O)O)NC(=O)[C@H](CCC(=O)O)NC(=O)[C@@H]1CCCN1C(=O)[C@H](CCC(=O)O)NC(=O)[C@H](C)NC(=O)[C@H](C)NC(=O)[C@H](C)NC(=O)[C@H](CCC(=O)O)NC(=O)[C@@H]1CCCN1C(=O)[C@H](CCCCNC(=O)CCCCCNC(=O)CC[C@H](NC(=O)CCCCCCCCCCCCCCCCC(=O)O)C(=O)O)NC(=O)[C@H](CCC(=O)O)NC(=O)[C@@H]1CCCN1C(=O)[C@H](C)NC(=O)CC(C)C)C(=O)N[C@@H](CCC(N)=O)C(=O)N[C@@H](CCCNC(=N)N)C(=O)N[C@@H](Cc1ccc(O)cc1)C(=O)N[C@@H](Cc1ccc(O)cc1)C(=O)N[C@H](C(=O)N[C@@H](C)C(=O)N[C@@H](CC(C)C)C(=O)N[C@@H](CCCNC(=N)N)C(=O)N[C@@H](Cc1c[nH]cn1)C(=O)N[C@@H](Cc1ccc(O)cc1)C(=O)N[C@@H](Cc1ccc(O)cc1)C(=O)N[C@@H](CC(N)=O)C(=O)N[C@@H](Cc1c[nH]c2ccccc12)C(=O)N[C@@H](CC(C)C)C(=O)N[C@H](C(=O)N[C@@H](CCCNC(=N)N)C(=O)N[C@@H](CCC(N)=O)C(=O)N[C@@H](CCCNC(=N)N)C(=O)N[C@@H](Cc1ccc(O)cc1)C(N)=O)[C@@H](C)O)C(C)C
B4: Compound 138 (peptide)
peptide: Isovaleryl-APEK([Ahx-γGlu-C18 diacid])PEEDAEPEELQEYYVSLRHYYNWLTRQRY-NH2
SMILES: CC(C)CC(=O)N[C@@H](C)C(=O)N1CCC[C@H]1C(=O)N[C@@H](CCC(=O)O)C(=O)N[C@@H](CCCCNC(=O)CCCCCNC(=O)CC[C@H](NC(=O)CCCCCCCCCCCCCCCCC(=O)O)C(=O)O)C(=O)N1CCC[C@H]1C(=O)N[C@@H](CCC(=O)O)C(=O)N[C@@H](CCC(=O)O)C(=O)N[C@@H](CC(=O)O)C(=O)N[C@@H](C)C(=O)N[C@@H](CCC(=O)O)C(=O)N1CCC[C@H]1C(=O)N[C@@H](CCC(=O)O)C(=O)N[C@@H](CCC(=O)O)C(=O)N[C@@H](CC(C)C)C(=O)N[C@@H](CCC(N)=O)C(=O)N[C@@H](CCC(=O)O)C(=O)N[C@@H](Cc1ccc(O)cc1)C(=O)N[C@@H](Cc1ccc(O)cc1)C(=O)N[C@H](C(=O)N[C@@H](CO)C(=O)N[C@@H](CC(C)C)C(=O)N[C@@H](CCCNC(=N)N)C(=O)N[C@@H](Cc1c[nH]cn1)C(=O)N[C@@H](Cc1ccc(O)cc1)C(=O)N[C@@H](Cc1ccc(O)cc1)C(=O)N[C@@H](CC(N)=O)C(=O)N[C@@H](Cc1c[nH]c2ccccc12)C(=O)N[C@@H](CC(C)C)C(=O)N[C@H](C(=O)N[C@@H](CCCNC(=N)N)C(=O)N[C@@H](CCC(N)=O)C(=O)N[C@@H](CCCNC(=N)N)C(=O)N[C@@H](Cc1ccc(O)cc1)C(N)=O)[C@@H](C)O)C(C)C
B5: Compound 139 (peptide)
peptide: Isovaleryl-APEK([Ahx-γGlu-C18 diacid])PEEEASPAELQRYYVSLRHYYNWLTRQRY-NH2
SMILES: CC(C)CC(=O)N[C@@H](C)C(=O)N1CCC[C@H]1C(=O)N[C@@H](CCC(=O)O)C(=O)N[C@@H](CCCCNC(=O)CCCCCNC(=O)CC[C@H](NC(=O)CCCCCCCCCCCCCCCCC(=O)O)C(=O)O)C(=O)N1CCC[C@H]1C(=O)N[C@@H](CCC(=O)O)C(=O)N[C@@H](CCC(=O)O)C(=O)N[C@@H](CCC(=O)O)C(=O)N[C@@H](C)C(=O)N[C@@H](CO)C(=O)N1CCC[C@H]1C(=O)N[C@@H](C)C(=O)N[C@@H](CCC(=O)O)C(=O)N[C@@H](CC(C)C)C(=O)N[C@@H](CCC(N)=O)C(=O)N[C@@H](CCCNC(=N)N)C(=O)N[C@@H](Cc1ccc(O)cc1)C(=O)N[C@@H](Cc1ccc(O)cc1)C(=O)N[C@H](C(=O)N[C@@H](CO)C(=O)N[C@@H](CC(C)C)C(=O)N[C@@H](CCCNC(=N)N)C(=O)N[C@@H](Cc1c[nH]cn1)C(=O)N[C@@H](Cc1ccc(O)cc1)C(=O)N[C@@H](Cc1ccc(O)cc1)C(=O)N[C@@H](CC(N)=O)C(=O)N[C@@H](Cc1c[nH]c2ccccc12)C(=O)N[C@@H](CC(C)C)C(=O)N[C@H](C(=O)N[C@@H](CCCNC(=N)N)C(=O)N[C@@H](CCC(N)=O)C(=O)N[C@@H](CCCNC(=N)N)C(=O)N[C@@H](Cc1ccc(O)cc1)C(N)=O)[C@@H](C)O)C(C)C
B6: Compound 134 (peptide)
peptide: Isovaleryl-APEK([Ahx-γGlu-C18 diacid])PEEDATPEEQQRYYVSLRHYYNWLTRQRY-NH2
SMILES: CC(C)CC(=O)N[C@@H](C)C(=O)N1CCC[C@H]1C(=O)N[C@@H](CCC(=O)O)C(=O)N[C@@H](CCCCNC(=O)CCCCCNC(=O)CC[C@H](NC(=O)CCCCCCCCCCCCCCCCC(=O)O)C(=O)O)C(=O)N1CCC[C@H]1C(=O)N[C@@H](CCC(=O)O)C(=O)N[C@@H](CCC(=O)O)C(=O)N[C@@H](CC(=O)O)C(=O)N[C@@H](C)C(=O)N[C@H](C(=O)N1CCC[C@H]1C(=O)N[C@@H](CCC(=O)O)C(=O)N[C@@H](CCC(=O)O)C(=O)N[C@@H](CCC(N)=O)C(=O)N[C@@H](CCC(N)=O)C(=O)N[C@@H](CCCNC(=N)N)C(=O)N[C@@H](Cc1ccc(O)cc1)C(=O)N[C@@H](Cc1ccc(O)cc1)C(=O)N[C@H](C(=O)N[C@@H](CO)C(=O)N[C@@H](CC(C)C)C(=O)N[C@@H](CCCNC(=N)N)C(=O)N[C@@H](Cc1c[nH]cn1)C(=O)N[C@@H](Cc1ccc(O)cc1)C(=O)N[C@@H](Cc1ccc(O)cc1)C(=O)N[C@@H](CC(N)=O)C(=O)N[C@@H](Cc1c[nH]c2ccccc12)C(=O)N[C@@H](CC(C)C)C(=O)N[C@H](C(=O)N[C@@H](CCCNC(=N)N)C(=O)N[C@@H](CCC(N)=O)C(=O)N[C@@H](CCCNC(=N)N)C(=O)N[C@@H](Cc1ccc(O)cc1)C(N)=O)[C@@H](C)O)C(C)C)[C@@H](C)O

Target: T1, human NPY2 receptor
Assay: RLB: displacement of 125I-PYY(1-36) from hNPY2R membranes

Row | Binder | Ki [nM]
1 | B1 | 4.68
2 | B2 | 49.6
3 | B3 | 3.83
4 | B4 | 12.5
5 | B5 | 3.6
6 | B6 | 2.8
